The target of the assay is 抗体-Fc融合蛋白scFv-3B5-Fc (anti-human CD19 scFv 3B5 fused to human IgG1 Fc) (human, UniProt P01857 99-330 = IgG part). The assay is described as follows: concentration-gradient ELISA, Fc-CD19 coated at 100 ng/well, goat anti-human-HRP detection, nonlinear fit (b = KD).

Results on 1 molecule are retold here after patent CN108840930A (SHENGYAN MEDICINE TECH WUHAN CO LTD, dated 2018).

B1: 人Fc-CD19重组蛋白 (recombinant human Fc-CD19, bought from Acrobiosystems) (Fc fusion, UniProt P15391 20-291, looked up)
chain: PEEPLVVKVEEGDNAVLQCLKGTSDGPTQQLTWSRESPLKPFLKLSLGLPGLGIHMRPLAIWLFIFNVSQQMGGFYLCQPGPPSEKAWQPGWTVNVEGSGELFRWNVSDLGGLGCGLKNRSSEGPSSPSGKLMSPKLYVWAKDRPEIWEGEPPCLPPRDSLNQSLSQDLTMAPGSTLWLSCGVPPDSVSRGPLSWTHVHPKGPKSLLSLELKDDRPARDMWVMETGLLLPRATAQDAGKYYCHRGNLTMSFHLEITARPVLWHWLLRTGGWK
notes: Bought reagent; the order here follows the printed name Fc-CD19; also called Fc-CD19重组抗原; 重组人CD19抗原; not shown: Fc part of the bought Fc-CD19 fusion
B1: the Kd (as a rule, a measure of binding affinity in units of concentration) was 0.475 nM.
